In patent US20060073508A1:

B1: Del322-325 human alpha-2C adrenergic receptor, P18825 1-462 (receptor)
chain: MASPALAAALAVAAAAGPNASGAGERGSGGVANASGASWGPPRGQYSAGAVAGLAAVVGFLIVFTVVGNVLVVIAVLTSRALRAPQNLFLVSLASADILVATLVMPFSLANELMAYWYFGQVWCGVYLALDVLFCTSSIVHLCAISLDRYWSVTQAVEYNLKRTPRRVKATIVAVWLISAVISFPPLVSLYRQPDGAAYPQCGLNDETWYILSSCIGSFFAPCLIMGLVYARIYRVAKRRTRTLSEKRAPVGPDGASPTTENGLGAAAGAGENGHCAPPPADVEPDESSAAAERRRRRGALRRGGRRRAGAEGGAGGADGQGAAESGALTASRSPGPGGRLSRASSRSVEFFLSRRRRARSSVCRRKVAQAREKRFTFVLAVVMGVFVLCWFPFFFIYSLYGICREACQVPGPLFKFFFWIGYCNSSLNPVIYTVFNQDFRPSFKHILFRRRRRGFRQ
B2: wild-type human alpha-2C adrenergic receptor, P18825 1-462 (receptor)
chain: MASPALAAALAVAAAAGPNASGAGERGSGGVANASGASWGPPRGQYSAGAVAGLAAVVGFLIVFTVVGNVLVVIAVLTSRALRAPQNLFLVSLASADILVATLVMPFSLANELMAYWYFGQVWCGVYLALDVLFCTSSIVHLCAISLDRYWSVTQAVEYNLKRTPRRVKATIVAVWLISAVISFPPLVSLYRQPDGAAYPQCGLNDETWYILSSCIGSFFAPCLIMGLVYARIYRVAKRRTRTLSEKRAPVGPDGASPTTENGLGAAAGAGENGHCAPPPADVEPDESSAAAERRRRRGALRRGGRRRAGAEGGAGGADGQGAGPGAAESGALTASRSPGPGGRLSRASSRSVEFFLSRRRRARSSVCRRKVAQAREKRFTFVLAVVMGVFVLCWFPFFFIYSLYGICREACQVPGPLFKFFFWIGYCNSSLNPVIYTVFNQDFRPSFKHILFRRRRRGFRQ
B3: polymorphic Lys251 human alpha-2A adrenergic receptor, P08913 16-465 (receptor)
chain: MGSLQPDAGNASWNGTEAPGGGARATPYSLQVTLTLVCLAGLLMLLTVFGNVLVIIAVFTSRALKAPQNLFLVSLASADILVATLVIPFSLANEVMGYWYFGKAWCEIYLALDVLFCTSSIVHLCAISLDRYWSITQAIEYNLKRTPRRIKAIIITVWVISAVISFPPLISIEKKGGGGGPQPAEPRCEINDQKWYVISSCIGSFFAPCLIMILVYVRIYQIAKRRTRVPPSRRGPDAVAAPPGGTERRPKGLGPERSAGPGGAEAEPLPTQLNGAPGEPAPAGPRDTDALDLEESSSSDHAERPPGPRRPERGPRGKGKARASQVKPGDSLPRRGPGATGIGTPAAGPGEERVGAAKASRWRGRQNREKRFTFVLAVVIGVFVVCWFPFFFTYTLTAVGCSVPRTLFKFFFWFGYCNSSLNPVIYTIFNHDFRRAFKKILCRGDRKRIV
B4: wild-type Asn251 human alpha-2A adrenergic receptor, P08913 16-465 (receptor)
chain: MGSLQPDAGNASWNGTEAPGGGARATPYSLQVTLTLVCLAGLLMLLTVFGNVLVIIAVFTSRALKAPQNLFLVSLASADILVATLVIPFSLANEVMGYWYFGKAWCEIYLALDVLFCTSSIVHLCAISLDRYWSITQAIEYNLKRTPRRIKAIIITVWVISAVISFPPLISIEKKGGGGGPQPAEPRCEINDQKWYVISSCIGSFFAPCLIMILVYVRIYQIAKRRTRVPPSRRGPDAVAAPPGGTERRPNGLGPERSAGPGGAEAEPLPTQLNGAPGEPAPAGPRDTDALDLEESSSSDHAERPPGPRRPERGPRGKGKARASQVKPGDSLPRRGPGATGIGTPAAGPGEERVGAAKASRWRGRQNREKRFTFVLAVVIGVFVVCWFPFFFTYTLTAVGCSVPRTLFKFFFWFGYCNSSLNPVIYTIFNHDFRRAFKKILCRGDRKRIV

Legend:
[1] = molecular target: Gi/Go (endogenous G proteins of the CHO cells); assay: cell-based or functional assay
[2] = molecular target: Gi (endogenous G protein of the CHO cells); assay: cell-based or functional assay

Binder	high affinity dissociation constant KH of epinephrine (competition with [3H]yohimbine, no GTP) [1] [nM]	percentage of receptors in the high-affinity state (% RH) [1] [%]	inhibition of adenylyl cyclase (epinephrine) [2] [% inhibition]	inhibition of adenylyl cyclase [2] [% inhibition]	stimulation of MAP kinase (fold increase over basal) [2]
B1	7.3	31	10		
B2	3.7	42	73		
B3				60	57
B4				46	15
